Assay results published in patent US20130195872A1 (NOVIMMUNE S A, published 2013).
Where a chain is given by its changes, count along the chain named.

How the values were obtained:
human IL-17A homodimer [1] = target: T1, human IL-17A homodimer (human, UniProt Q16552 20-155, limits assumed); experiment: cell-based or functional assay
T1 sequence (looked up): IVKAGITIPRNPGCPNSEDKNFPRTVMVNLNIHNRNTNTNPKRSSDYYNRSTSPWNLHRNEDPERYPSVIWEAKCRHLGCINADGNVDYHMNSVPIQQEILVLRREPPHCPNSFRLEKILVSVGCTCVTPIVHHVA

[2] = target: T2, cynomolgus IL-17F homodimer (cynomolgus, UniProt G7P4V0 31-163); experiment: FLISA, cytokine on beads
T2 construct: range 31-163; Produced in house in PEAK cells, His-tagged, predominantly disulfide-linked homodimer; also called cyIL-17F; cnIL-17F; not shown: N-terminal His tag
T2 sequence: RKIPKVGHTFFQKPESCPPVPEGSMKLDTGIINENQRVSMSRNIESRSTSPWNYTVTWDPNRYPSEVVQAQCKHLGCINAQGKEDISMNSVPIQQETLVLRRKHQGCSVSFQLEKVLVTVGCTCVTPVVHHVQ

[3] = target: T3, cynomolgus IL-17A homodimer (cynomolgus, UniProt A0A2K5TTB0 20-155); experiment: FLISA, cytokine on beads
T3 construct: Produced in house in PEAK cells, His-tagged, predominantly disulfide-linked homodimer; also called cyIL-17A; cnIL-17A; not shown: N-terminal His tag
T3 sequence: T1 sequence (looked up) with T7A, P12S, N38S, I81V, N82K, P108R

human IL-17A homodimer [4] = target: T1, human IL-17A homodimer; experiment: cell-based or functional assay; remark: listed apart in the source
[5] = target: T4, human IL-17A/IL-17F heterodimer (human, UniProt Q16552 24-155; Q96PD4 31-163, limits assumed); experiment: cell-based or functional assay
T4 sequence (looked up) 1: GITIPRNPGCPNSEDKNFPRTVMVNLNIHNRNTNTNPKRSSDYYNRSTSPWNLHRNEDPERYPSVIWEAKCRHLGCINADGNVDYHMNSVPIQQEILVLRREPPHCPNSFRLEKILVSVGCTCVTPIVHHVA
T4 sequence (looked up) 2: T2 sequence with E22G, T29I, K73R, H74N, L100V, V129I

[6] = target: T3, cynomolgus IL-17A homodimer; experiment: cell-based or functional assay
[7] = target: T5, mouse IL-17A/IL-17F heterodimer (mouse, UniProt Q62386 26-158; Q7TNI7 29-161, limits assumed); experiment: cell-based or functional assay
T5 sequence (looked up) 1: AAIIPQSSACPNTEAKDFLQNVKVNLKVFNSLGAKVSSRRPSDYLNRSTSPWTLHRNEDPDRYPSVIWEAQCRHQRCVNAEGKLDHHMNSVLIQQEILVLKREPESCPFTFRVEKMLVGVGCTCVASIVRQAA
T5 sequence (looked up) 2: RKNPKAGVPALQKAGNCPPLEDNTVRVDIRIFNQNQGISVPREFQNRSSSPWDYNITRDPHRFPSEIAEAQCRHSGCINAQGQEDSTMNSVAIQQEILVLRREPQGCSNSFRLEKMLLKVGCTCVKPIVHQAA

mouse IL-17A homodimer [8] = target: T6, mouse IL-17A homodimer (mouse, UniProt Q62386 26-158, limits assumed); experiment: cell-based or functional assay
T6 sequence (looked up): T5 sequence (looked up) 1

rat IL-17F homodimer = target: T7, rat IL-17F homodimer (rat, UniProt Q5BJ95 29-161); experiment: cell-based or functional assay
T7 sequence (looked up): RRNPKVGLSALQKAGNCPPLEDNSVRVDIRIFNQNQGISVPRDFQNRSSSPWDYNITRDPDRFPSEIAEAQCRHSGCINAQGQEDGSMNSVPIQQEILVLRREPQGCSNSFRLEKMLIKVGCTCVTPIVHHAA

rat IL-17A homodimer [9] = target: T8, rat IL-17A homodimer (rat, UniProt Q61453 18-150, limits assumed); experiment: cell-based or functional assay
T8 sequence (looked up): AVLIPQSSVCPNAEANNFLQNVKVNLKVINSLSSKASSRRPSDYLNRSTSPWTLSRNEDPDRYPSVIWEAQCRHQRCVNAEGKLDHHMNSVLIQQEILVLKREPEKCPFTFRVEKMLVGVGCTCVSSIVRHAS

mouse IL-17F homodimer [10] = target: T9, mouse IL-17F homodimer (mouse, UniProt Q7TNI7 29-161, limits assumed); experiment: cell-based or functional assay
T9 sequence (looked up): T5 sequence (looked up) 2

human IL-17A homodimer [11] = target: T1, human IL-17A homodimer; experiment: SPR Biacore, mAb captured, cytokine as analyte
[12] = target: T10, cynomolgus IL-17A/IL-17F heterodimer (cynomolgus); experiment: SPR Biacore, mAb captured, cytokine as analyte
T10 construct: Produced in house in PEAK cells; how the heterodimer was made is not described; also called cyIL-17A-F heterodimer; cynomolgus IL-17A/F

[13] = target: T5, mouse IL-17A/IL-17F heterodimer; experiment: SPR Biacore, mAb captured, cytokine as analyte
mouse IL-17A homodimer [14] = target: T6, mouse IL-17A homodimer; experiment: SPR Biacore, mAb captured, cytokine as analyte
rat IL-17A homodimer [15] = target: T8, rat IL-17A homodimer; experiment: SPR Biacore, mAb captured, cytokine as analyte
[16] = target: T3, cynomolgus IL-17A homodimer; experiment: SPR Biacore, mAb captured, cytokine as analyte
mouse IL-17F homodimer [17] = target: T9, mouse IL-17F homodimer; experiment: SPR Biacore, mAb captured, cytokine as analyte
[18] = target: T10, cynomolgus IL-17A/IL-17F heterodimer; experiment: cell-based or functional assay
[19] = target: T3, cynomolgus IL-17A homodimer; experiment: cell-based or functional assay; remark: listed apart in the source
human IL-17A homodimer [20] = target: T1, human IL-17A homodimer; experiment: FLISA, cytokine on beads
[21] = target: T2, cynomolgus IL-17F homodimer; experiment: cell-based or functional assay

B1: 4B11 antibody (antibody, IgG1, V domains shown)
VH: QLQLQESGPGLVKPSETLSLTCAVSDDYISSRSYYWGWIRQPPGKGLEWIGSIYYSGSTYYNPSLKSRVTISVDTSKNQFSLKVSSVTATDTAVYYCARVSGWNGNWFDPWGQGTLVTVSS
VL: not shown
notes: also called 4B11 IgG1
IC50, IL-6 secretion by HFFF2 human fibroblasts, cytokine at 25 ng/ml (human IL-17A homodimer [1]): > 1000 nM
binding result [2]: binds
binding result [3]: binds
IC50, IL-6 secretion by MEF cells, cytokine at 5 ng/ml (human IL-17A homodimer [4]): 680 nM
IC50, IL-6 secretion by MEF cells, cytokine at 17.5 ng/ml [5]: 810 nM

B2: 39F12A antibody (antibody, V domains shown)
VH: QVQLVQSGAEVKKPGSSVKVSCKASGGTLSSYAFSWVRQAPGQGLEWMGGIIPFFGTTNYAQKFQGRVIITADESTNTAYMELSGLRSEDTAVYYCARDRDYYGLGSPFYYYGMDVWGQGTTVTVSS
VL: EIVLTQSPDFQSVTPKEKVTITCRASQSIGSSLHWYQQKPDQSPKLLIKYASQSFSGVPSRFSGSGSGTDFTLTINSLEAEDAATYYCHQSSSLPWTFGQGTKVEIK
IC50, IL-6 secretion by HFFF2 human fibroblasts, cytokine at 25 ng/ml (human IL-17A homodimer [1]): 21 nM
IC50, IL-6 secretion by HFFF2 human fibroblasts, cytokine at 25 ng/ml [6]: 20 nM
IC50, IL-6 secretion by MEF cells, cytokine at 50 ng/ml [7]: 170 nM
IC50, IL-6 secretion by MEF cells, cytokine at 5 ng/ml (mouse IL-17A homodimer [8]): > 1000 nM
IC50, IL-6 secretion by MEF cells, cytokine at 25 ng/ml (rat IL-17F homodimer): 0.71 nM
IC50, IL-6 secretion by MEF cells, cytokine at 5 ng/ml (rat IL-17A homodimer [9]): > 1000 nM
IC50, IL-6 secretion by MEF cells, cytokine at 50 ng/ml (mouse IL-17F homodimer [10]): 6.2 nM
IC50, IL-6 secretion by MEF cells, cytokine at 17.5 ng/ml [5]: 4.4 nM

B3: 15E6FK antibody (antibody, V domains shown)
VH: EVQLVESGGGLVQPGRSLRLSCAASGFTFDDYAMHWVRQAPGKGLEWVSGINWSSGGIGYADSVKGRFTISRDNAKNSLYLQMNSLRAEDTALYYCARDIGGFGEFYWNFGLWGRGTLVTVSS
VL: not shown
notes: kappa light chain (captured by anti-human IgG-kappa); also called mAb 15E6FK; 15E6FK IgG1
Kd (human IL-17A homodimer [11]): 0.0117 nM
Kd [12]: 0.0394 nM
Kd [13]: 0.524 nM
binding result (mouse IL-17A homodimer [14]): no binding (tested: up to 90 nM cytokine)
binding result (rat IL-17A homodimer [15]): no binding (tested: up to 90 nM cytokine)
Kd [16]: 0.0104 nM
Kd (mouse IL-17F homodimer [17]): 0.236 nM
IC50, IL-6 secretion by HFFF2 human fibroblasts, cytokine at 25 ng/ml (human IL-17A homodimer [1]): 0.83 nM
IC50, IL-6 secretion by HFFF2 human fibroblasts, cytokine at 25 ng/ml [6]: 0.76 nM
IC50, IL-6 secretion by MEF cells, cytokine at 5 ng/ml (human IL-17A homodimer [4]): 0.18 nM
IC50, IL-6 secretion by MEF cells, cytokine at 25 ng/ml [18]: 0.08 nM
IC50, IL-6 secretion by MEF cells, cytokine at 50 ng/ml [7]: > 1000 nM
IC50, IL-6 secretion by MEF cells, cytokine at 5 ng/ml [19]: 0.04 nM
IC50, IL-6 secretion by MEF cells, cytokine at 50 ng/ml (mouse IL-17F homodimer [10]): > 1000 nM

B4: 41B10 antibody (antibody, IgG4, V domains shown)
VH: not shown
VL: DIQMTQSPSSLSASVGDRVTITCRASQGISSWLAWYQQKPEKAPKSLIYAASSLQSGVPSRFSGSGSGTDFTLTISSLQPEDFATYYCQQYNSYPITFGQGTRLEIK
notes: also called 41B10 IgG4
binding result [2]: binds
binding result (human IL-17A homodimer [20]): no binding
IC50, IL-6 secretion by MEF cells, cytokine at 5 ng/ml (human IL-17A homodimer [4]): > 1000 nM
IC50, IL-6 secretion by MEF cells, cytokine at 17.5 ng/ml [5]: > 1000 nM

B5: 30D12BF antibody (antibody, V domains shown)
VH: QVQLVQSGAEVKKPGASVKVSCKASGYTFTSYDINWVRQATGQGLEWMGWLNPDSGVIRYAQKFQGRVTMTRDTSISTAYMELSSLRSEDTAVYYCAREWFGELPSYYFYSGMDVWGQGTTVTVSS
VL: EIVLTQSPATLSLSPGERATLSCRASQSVSSYLAWYQQKPGQAPRLLIYDASNRATGIPARFSGSGSGTDFTLTISSLEPEDFAVYYCQQRSNWPPTFGPGTKVDIK
IC50, IL-6 secretion by HFFF2 human fibroblasts, cytokine at 25 ng/ml (human IL-17A homodimer [1]): 3 nM
IC50, IL-6 secretion by HFFF2 human fibroblasts, cytokine at 25 ng/ml [6]: 5.7 nM
IC50, IL-6 secretion by MEF cells, cytokine at 25 ng/ml [21]: 130 nM
IC50, IL-6 secretion by MEF cells, cytokine at 5 ng/ml (human IL-17A homodimer [4]): 1.6 nM
IC50, IL-6 secretion by MEF cells, cytokine at 25 ng/ml [18]: 13 nM
IC50, IL-6 secretion by MEF cells, cytokine at 25 ng/ml (rat IL-17F homodimer): 30 nM
IC50, IL-6 secretion by MEF cells, cytokine at 5 ng/ml (rat IL-17A homodimer [9]): > 1000 nM
IC50, IL-6 secretion by MEF cells, cytokine at 5 ng/ml [19]: 2.5 nM
IC50, IL-6 secretion by MEF cells, cytokine at 17.5 ng/ml [5]: 27 nM

B6: 4H11 antibody (antibody, IgG1, V domains shown)
VH: EVQLVESGGGLVQPGGSLKLSCAASGFTFSGSSMHWVRQASGKGLDWVGRIRSKANSYATAYAASVIGRFTISRDDSKNTAYLQMNSLKTEDTAVYYCTTSVATTLTDYYGMDVWGQGTTVTVSS
VL: EIVLTQSPATLSLSPGERATLSCRASQSVSSYLAWYQQKPGQAPRLLIYDASNRATGIPARFSGSGSGTDFTLTISSLEPEDFAVYYCQQRSNWPPFTFGPGTKVDIK
notes: also called Mab09; 4H11 IgG1
IC50, IL-6 secretion by HFFF2 human fibroblasts, cytokine at 25 ng/ml (human IL-17A homodimer [1]): 108 nM
binding result [2]: binds
binding result [3]: binds
IC50, IL-6 secretion by MEF cells, cytokine at 5 ng/ml (human IL-17A homodimer [4]): 87 nM
IC50, IL-6 secretion by MEF cells, cytokine at 17.5 ng/ml [5]: 810 nM

B7: 5E12 antibody (antibody, IgG4, V domains shown)
VH: QVQLVQSGGGLVQPGRSLRLSCAASGFTFDDYAMHWVRQAPGKGLEWVSGISWNSGTIGYADSVKGRFTISRDNAKNSLYLQMNSLRAEDTALYYCAKELYISDWDSYSYGMDVWGQGTTVTVSS
VL: not shown
notes: also called Mab05; 5E12 IgG4
binding result [2]: binds
binding result (human IL-17A homodimer [20]): no binding
IC50, IL-6 secretion by MEF cells, cytokine at 5 ng/ml (human IL-17A homodimer [4]): > 1000 nM
IC50, IL-6 secretion by MEF cells, cytokine at 17.5 ng/ml [5]: > 1000 nM
